Reference: patent publication US20100204147A1, “Methods For Delivering Thymosin Beta 4, Analogues, Isoforms and Other Derivatives” (REGENERX BIOPHARMACEUTICALS, INC., priority 2003, published 2010)

Biological target: T1, fibrin (Homo sapiens, UniProt P02671)
T1 construct: purchased Enzyme Research Laboratories (South Bend, Ind.); host or cells: fibrin generated in the well or tube from the purchased fibrinogen with bovine thrombin
T1 sequence (P02671 36-629): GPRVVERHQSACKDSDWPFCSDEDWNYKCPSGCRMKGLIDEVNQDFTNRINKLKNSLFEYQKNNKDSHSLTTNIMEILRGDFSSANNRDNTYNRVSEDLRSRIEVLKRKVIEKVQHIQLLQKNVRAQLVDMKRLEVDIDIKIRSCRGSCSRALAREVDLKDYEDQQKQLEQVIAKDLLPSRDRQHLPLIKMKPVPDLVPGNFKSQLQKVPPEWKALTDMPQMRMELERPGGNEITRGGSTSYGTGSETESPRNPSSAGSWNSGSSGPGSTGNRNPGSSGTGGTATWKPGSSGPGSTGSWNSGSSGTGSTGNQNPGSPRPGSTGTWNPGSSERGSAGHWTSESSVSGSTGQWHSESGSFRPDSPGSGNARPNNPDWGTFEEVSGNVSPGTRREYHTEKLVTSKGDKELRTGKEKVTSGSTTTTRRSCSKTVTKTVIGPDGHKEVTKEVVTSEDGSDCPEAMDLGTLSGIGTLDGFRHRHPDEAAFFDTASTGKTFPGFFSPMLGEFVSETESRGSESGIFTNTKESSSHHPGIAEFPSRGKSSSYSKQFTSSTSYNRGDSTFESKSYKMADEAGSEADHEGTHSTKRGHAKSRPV
T1 sequence (P02675 45-491 partner): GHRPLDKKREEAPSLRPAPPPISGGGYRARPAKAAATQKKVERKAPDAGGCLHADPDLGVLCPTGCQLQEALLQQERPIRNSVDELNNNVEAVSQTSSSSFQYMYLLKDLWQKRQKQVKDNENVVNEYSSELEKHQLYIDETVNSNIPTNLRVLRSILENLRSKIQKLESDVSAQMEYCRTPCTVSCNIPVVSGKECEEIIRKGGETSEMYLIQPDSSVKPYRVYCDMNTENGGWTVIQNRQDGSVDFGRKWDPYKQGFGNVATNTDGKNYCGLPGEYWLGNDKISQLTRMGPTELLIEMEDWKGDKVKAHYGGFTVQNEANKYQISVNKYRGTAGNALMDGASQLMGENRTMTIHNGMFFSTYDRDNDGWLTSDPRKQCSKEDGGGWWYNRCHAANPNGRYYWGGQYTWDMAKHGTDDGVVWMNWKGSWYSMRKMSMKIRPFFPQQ
T1 sequence (P02679 27-437 isoform P02679-2 partner): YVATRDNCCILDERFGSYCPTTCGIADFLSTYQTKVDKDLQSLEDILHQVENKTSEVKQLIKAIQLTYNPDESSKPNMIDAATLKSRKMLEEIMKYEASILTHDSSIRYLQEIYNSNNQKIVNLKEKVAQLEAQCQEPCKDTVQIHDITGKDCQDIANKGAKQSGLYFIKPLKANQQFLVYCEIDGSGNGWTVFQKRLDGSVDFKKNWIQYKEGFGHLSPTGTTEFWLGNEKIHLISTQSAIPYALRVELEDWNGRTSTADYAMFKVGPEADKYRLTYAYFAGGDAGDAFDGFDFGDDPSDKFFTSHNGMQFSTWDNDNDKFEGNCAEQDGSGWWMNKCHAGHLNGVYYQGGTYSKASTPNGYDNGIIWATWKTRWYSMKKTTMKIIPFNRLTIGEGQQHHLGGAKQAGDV
Assay: Factor XIIIa-mediated incorporation of FITC-labeled thymosin β4 into fibrin (spectrophotometric)
Type: biochemical
Method: Reactions of incorporation of FITC-labeled and unlabeled thymosin β4 into fibrinogen and fibrin were performed in Eppendorf tubes containing a mixture of fibrinogen at 3 mg/mL (9 μM) and thymosin β4 or FITC-labeled thymosin β4 at […] (30 μM) in 100 μL TBS with 2.5 mM CaCl2. The reactions were initiated by addition of FXIIIa(Ca) or FXIIIa(Thr) to final concentration of 30 μg/mL. The final concentration of thrombin in the FXIIIa(Thr)-containing mixtures was made at 2.5 NIH u/mL, sufficient to rapidly form fibrin clot which was observed visually. The reactions with FITC-labeled thymosin β4 lasted for 4 hours at 37° C. in the dark and were stopped by heat inactiviation of the enzymes in boiling water for 5 min during fibrinogen and fibrin denatured and precipitated. The pellets were centrifuged and washed 3 times in TBS and then solubilized. The amounts of fibrin(ogen) and FITC-labeled thymosin β4 in the solubilized pellet were determined spectrophotomertrically using absorption molar coefficients E280,1%=15.0 and ε495=72,000 M^−1cm^−1, respectively. To prepare samples with unlabeled thymosin β4 for analysis by SDS-PAGE and Western blot the reaction mixtures at the indicated time were heat-inactivated as above and solubilized by addition of sample buffer (Invitrogen) containing SDS and reducing agent.

## thymosin β4
Fibrinogen 9 μM, thymosin β4 30 μM, factor XIIIa with thrombin, 4 hours, 37° C.
  degree of incorporation into fibrin: 0.4 moles per mole
Physiological concentrations of fibrin(ogen) and factor XIII
  molar incorporation ratio of thymosin β4 to fibrin: 0.4
